Results from patent CN111378628A (UNIV YANGZHOU, dated 2020).

Assays:
重组ESAT6蛋白 = 重组ESAT6蛋白 (Mycobacterium tuberculosis, UniProt P9WNK7 1-95); assay: Western blotting
H37Rv中ESAT6抗原 = molecular target: T1, H37Rv中ESAT6抗原 (Mycobacterium tuberculosis H37Rv, UniProt P9WNK7 2-95); assay: Western blotting
T1 construct: also called H37Rv中的ESAT6抗原
T1 sequence (P9WNK7 2-95 limits assumed): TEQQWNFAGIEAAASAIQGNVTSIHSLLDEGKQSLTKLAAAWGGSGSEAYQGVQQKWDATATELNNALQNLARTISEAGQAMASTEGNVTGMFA

Sequence of 重组ESAT6蛋白 (P9WNK7 whole entry): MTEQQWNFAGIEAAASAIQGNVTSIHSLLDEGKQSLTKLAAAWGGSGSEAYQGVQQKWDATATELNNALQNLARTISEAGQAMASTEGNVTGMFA

B1: 单克隆抗体MAb 8G4 (抗ESAT6单克隆抗体, 杂交瘤细胞株8G4, CCTCC NO:C2019287) (antibody, V domains shown)
VH: QIQLVQSGPELKRPGETVKISCKASGYTFTNYGMNWVKQAPGKGLKWMGWINTYNGVPTYTDDFKGRFAFSLETSARTAYLQIKNLKNEDMATYFCAIGGNIPPAYWGQGTLVTVSA
VL: NIMMTQSPSSLAVSAREKVTMICKSSHSVLKSSNQKNYLAWYQQKPGQSPKLLIYWASTRNSGVPDRFTGSGSGTNFTLTITSVQTEDLAVYYCHQYLSSLTFGGGTKLELK
notes: also called 单克隆抗体8G4; ESAT6单克隆抗体8G4
重组ESAT6蛋白
  binding result: binds
H37Rv中ESAT6抗原
  binding result: binds
